For the experiment, the target named is purified SARS-CoV-2 N protein produced in pupae (SARS-CoV-2, UniProt P0DTC9 1-419). The experiment in a line: ELISA.

B1: Niemann-Pick type C1 (NPC1) receptor, endogenous human (natural protein)
chain: QSCVWYGECGIAYGDKRYNCEYSGPPKPLPKDGYDLVQELCPGFFFGNVSLCCDVRQLQTLKDNLQLPLQFLSRCPSCFYNLLNLFCELTCSPRQSQFLNVTATEDYVDPVTNQTKTNVKELQYYVGQSFANAMYNACRDVEAPSSNDKALGLLCGKDADACNATNWIEYMFNKDNGQAPFTITPVFSDFPVHGMEPMNNATKGCDESVDEVTAPCSCQDCSIVCGPKPQPPPPPAPWTILGLDAMYVIMWITYMAFLLVFFGAFFAVWCYRKRYFVSEYTPIDSNIAFSVNASDKGEASCCDPVSAAFEGCLRRLFTRWGSFCVRNPGCVIFFSLVFITACSSGLVFVRVTTNPVDLWSAPSSQARLEKEYFDQHFGPFFRTEQLIIRAPLTDKHIYQPYPSGADVPFGPPLDIQILHQVLDLQIAIENITASYDNETVTLQDICLAPLSPYNTNCTILSVLNYFQNSHSVLDHKKGDDFFVYADYHTHFLYCVRAPASLNDTSLLHDPCLGTFGGPVFPWLVLGGYDDQNYNNATALVITFPVNNYYNDTEKLQRAQAWEKEFINFVKNYKNPNLTISFTAERSIEDELNRESDSDVFTVVISYAIMFLYISLALGHMKSCRRLLVDSKVSLGIAGILIVLSSVACSLGVFSYIGLPLTLIVIEVIPFLVLAVGVDNIFILVQAYQRDERLQGETLDQQLGRVLGEVAPSMFLSSFSETVAFFLGALSVMPAVHTFSLFAGLAVFIDFLLQITCFVSLLGLDIKRQEKNRLDIFCCVRGAEDGTSVQASESCLFRFFKNSYSPLLLKDWMRPIVIAIFVGVLSFSIAVLNKVDIGLDQSLSMPDDSYMVDYFKSISQYLHAGPPVYFVLEEGHDYTSSKGQNMVCGGMGCNNDSLVQQIFNAAQLDNYTRIGFAPSSWIDDYFDWVKPQSSCCRVDNITDQFCNASVVDPACVRCRPLTPEGKQRPQGGDFMRFLPMFLSDNPNPKCGKGGHAAYSSAVNILLGHGTRVGATYFMTYHTVLQTSADFIDALKKARLIASNVTETMGINGSAYRVFPYSVFYVFYEQYLTIIDDTIFNLGVSLGAIFLVTMVLLGCELWSAVIMCATIAMVLVNMFGVMWLWGISLNAVSLVNLVMSCGISVEFCSHITRAFTVSMKGSRVERAEEALAHMGSSVFSGITLTKFGGIVVLAFAKSQIFQIFYFRMYLAMVLLGATHGLIFLPVLLSYIGPSVNKAKSCATEERYKGTERERLLNF
Consider B1, for which the binding result is recorded as “binds”.

Source of the values: doi:10.1101/2020.12.19.423584 (bioRxiv, 2020).
